The target in this test is enzyme I (phosphoenolpyruvate-protein phosphotransferase, EC 2.7.3.9) of the E. coli phosphotransferase system (E. coli), P08839. In words: cell-based or functional assay.

The molecule SSLRGHRWVY (modifications not checked) [peptide 17 …] gave an inhibition IC50 of 120 µM and an uncoupling Pi/peptide (x IC50/h) (Pi/peptide (x IC50/h)) of 50.3.

(Values after patent EP0866075B1, “Method to treat microbial infections by uncoupling of phosphotransferase system and appropriate agents therefor” (Arpida AG,, priority 1997, dated 1998).)
